Where two headings read alike, the source gives them in different places. One block for each molecule: values may come before it.
What was measured:
[1] = biological target: DnaC (with DnaB^KAEA and M13 ssDNA) (Escherichia coli, UniProt P0AEF0); experiment: coupled pyruvate kinase/lactate dehydrogenase ATPase assay, A340; format: biochemical; details: DnaB K236A/E262A and M13 ssDNA present; 10 mM MgCl2, pH 7.5, 37 °C
[2] = biological target: E. coli DnaB replicative helicase, wild type (E. coli) (UniProt P0ACB0); experiment: cryo-EM structure
[3] = biological target: E. coli DnaB replicative helicase, wild type (E. coli) (UniProt P0ACB0); experiment: cryo-EM structure; remark: listed apart in the source
cryo-EM structure = biological target: the molecule itself; experiment: cryo-EM structure

Molecule: Nc1ncnc2c1ncn2[C@@H]1O[C@H](COP(=O)(O)OP(=O)(O)OP(=O)(O)O)[C@@H](O)[C@H]1O [ATP]
Km [1]: DnaC follows apparent Michaelis-Menten behavior

stoichiometry N [2]: 6
stoichiometry N [3]: 6
Molecule: E. coli DnaB replicative helicase, wild type (from UniProt P0ACB0 1-471) (enzyme)

B1: E. coli DnaC helicase loader, wild type (enzyme, UniProt P0AEF0 1-245, looked up)
chain: MKNVGDLMQRLQKMMPAHIKPAFKTGEELLAWQKEQGAIRSAALERENRAMKMQRTFNRSGIRPLHQNCSFENYRVECEGQMNALSKARQYVEEFDGNIASFIFSGKPGTGKNHLAAAICNELLLRGKSVLIITVADIMSAMKDTFRNSGTSEEQLLNDLSNVDLLVIDEIGVQTESKYEKVIINQIVDRRSSSKRPTGMLTNSNMEEMTKLLGERVMDRMRLGNSLWVIFNWDSYRSRVTGKEY
stoichiometry N (cryo-EM structure): 6

Source: article PMC6450724 (Molecular cell, 2019)
